Test results reported in patent publication US20260116991A1 (HAINAN SIMCERE ZAIMING PHARMACEUTICAL, published 2026).
Numbering of substitutions follows the chain as printed. Each block holds one binder with its values, some of them ahead of it.

Key:
[1] = target: T1, human GPC3-His protein (human, UniProt P51654 25-559); experiment: ELISA, coated human GPC3, antibody 10 nM;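 further: plate coated with antigen at 1 µg/mL, antibodies bound 2 h at 37 °C, detected via HRP-conjugated secondary antibody and TMB substrate, absorbance read after acid stop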
T1 construct: Bought protein; also called human GPC3 protein; not shown: His tag

[2] = target: T2, human GPC3 on CHO-K1-human GPC3 cells (clone CHOK1-hGPC3.2B5) (human, UniProt P51654 25-554); experiment: FACS on CHOK1-hGPC3.2B5 cells;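 further: flow cytometry binding of chimeric antibodies to the cells, read out as mean fluorescence intensity, with the half-maximal concentration derived by curve fitting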
T2 construct: whole, on cells; Stably transfected CHO-K1 clone 2B5
Procedure: (§1) The desired cells were expanded to a logarithmic growth phase in a T-75 cell culture flask, the medium was removed by pipetting, and the cells were washed twice with a PBS buffer, and digested with trypsin. Then a complete medium was added to stop the digestion, and the cells were blown into a single cell suspension. After counting, the cells were centrifuged, and the cell pellet was resuspended with an FACS buffer (PBS+2% fetal bovine serum) to 2×10⁶ cells/mL. The cell resuspension solution was added to a 96-well FACS reaction plate at 50 μl/well, and a chimeric antibody sample to be tested was added at 50 μl/well for incubation at 4° C. for 1 h. […] After the plate was centrifuged and washed 3 times with a PBS buffer, 100 μl of the resulting solution was assayed and analyzed by FACS (FACS Canto™, purchased from BD Biosciences). Data analysis was performed by software (FlowJo) to obtain the mean fluorescence intensity (MFI) of the cells. Then, analysis was performed by software (GraphPad Prism8), data were fitted, and EC₅₀ values were calculated.

[3] = target: T3, GPC3 endogenously expressed on HepG2 cells (UniProt P51654 25-554); experiment: FACS on HepG2 cells;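 further: flow cytometric binding of chimeric antibodies to cells, read as mean fluorescence intensity, EC50 obtained by curve fitting of the MFI data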
T3 construct: whole, on cells
Procedure: as §1

[4] = target: T1, human GPC3-His protein; experiment: ELISA, coated human GPC3, antibody 0.1 nM;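 further: antigen coated on 96-well plates at 1 µg/mL, antibody bound 2 h at 37 °C, detected with HRP-labeled secondary antibody and TMB substrate, acid-stopped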
Procedure: (§2) The specific method is described as follows: The antigen protein was diluted with PBS to a final concentration of 1 μg/mL, and the diluent was added to a 96-well ELISA plate at 50 μL/well. The plate was sealed with a plastic film and incubated at 4° C. overnight, washed twice with PBS the next day, and a blocking solution [PBS+2% (w/w) BSA] was added for blocking at room temperature for 2 h. […] After incubation at 37° C. for 2 h, the plate was washed 3 times with PBS. A horseradish peroxidase (HRP)-labeled secondary antibody (purchased from Merck, Cat. No. AP113P) was added for incubation at 37° C. for 1 h, and the plate was washed 5 times with PBS. A TMB substrate was added at 50 μL/well for incubation at room temperature for 10 min, then a stop solution (1.0M HCl) was added at 50 μL/well. An ELISA plate reader (Multimode Plate Reader, EnSight, purchased from Perkin Elmer) was used to read OD_{450 nm} values, with results as shown in Table 4 to Table 6, FIG. 1A, FIG. 1B, and FIG. 1C.

[5] = target: T1, human GPC3-His protein; experiment: ELISA, coated human GPC3, antibody 0.01 nM;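 further: Plate-bound antigen coated at 1 µg/mL, antibody incubated 2 h at 37 °C, binding detected by HRP-conjugated secondary antibody with TMB substrate, read as absorbance at 450 nm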
Procedure: as §2

[6] = target: T1, human GPC3-His protein; experiment: ELISA, coated human GPC3, antibody 0.001 nM
[7] = target: T1, human GPC3-His protein; experiment: ELISA, coated human GPC3, antibody 0.0001 nM
[8] = target: T1, human GPC3-His protein; experiment: ELISA, coated human GPC3, antibody 1 nM;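 further: antigen coated at 1 µg/mL on 96-well plates, antibody bound for 2 h at 37 °C, detected with HRP-labeled secondary antibody and TMB, absorbance read at 450 nm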
Procedure: as §2

[9] = target: T1, human GPC3-His protein; experiment: ELISA, coated human GPC3, antibody 100 nM;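 further: antibodies bound to antigen-coated 96-well plates (1 µg/mL), 2 h at 37 °C, detected with HRP-labelled secondary antibody and TMB substrate, absorbance read at 450 nm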
Procedure: as §2

OD450 nm [1]: 1.74 OD450
EC50 [2]: 0.66 nM
Max MFI [2]: 8850 MFI
EC50 [3]: 0.25 nM
Max MFI [3]: 1880 MFI
OD450 nm [4]: 0.86 OD450
OD450 nm [5]: 0.23 OD450
OD450 nm [6]: 0.11 OD450
OD450 nm [7]: 0.09 OD450
OD450 nm [8]: 1.33 OD450
OD450 nm [9]: 1.46 OD450
B1: F1.73.9 human-murine chimeric antibody (antibody, human IgG1, kappa, V domains shown)
VH: QVQLKQSGAELVRPGASVKLSCKASGYTFTDYYINWVKQRPGQGLEWIARIYPGSGNTYYNEKFKGKATLTAEKSSSTAYMQFSSLTSEDSAVYFCACSTYYTMDYWGQGTSVTVSS
VL: QIVLTQSPAIMSASLGERVTMTCTASSGVSSSYLHWYQQKPGSSPKLWIYTTSNLASGVPARFSGSGSGTSYSLTISSMEAEDAATYYCHQYHRSPYTFGGGTKLEIKR

OD450 nm [1]: 1.07 OD450
EC50 [2]: 0.76 nM
Max MFI [2]: 10400 MFI
EC50 [3]: 0.31 nM
Max MFI [3]: 2120 MFI
OD450 nm [4]: 0.66 OD450
OD450 nm [5]: 0.19 OD450
OD450 nm [6]: 0.12 OD450
OD450 nm [7]: 0.09 OD450
OD450 nm [8]: 0.72 OD450
OD450 nm [9]: 0.45 OD450
B2: F1.78.24 human-murine chimeric antibody (antibody, human IgG1, kappa, V domains shown)
VH: QVQLQQSGAELVKPGASVKMSCKASGYTFTTYPIEWMKQNHGKSLEWIGNFHPYNDDTNYNVKFKGKATLTVEKSSSTVYLELSRLTSDDSALYYCARRREYYGSFDVWGTGTTVTVSS
VL: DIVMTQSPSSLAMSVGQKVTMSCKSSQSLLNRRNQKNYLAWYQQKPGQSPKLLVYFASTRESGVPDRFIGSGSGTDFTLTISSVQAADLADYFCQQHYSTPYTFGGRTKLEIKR

OD450 nm [1]: 1.7 OD450
EC50 [2]: 0.68 nM
Max MFI [2]: 10700 MFI
EC50 [3]: 0.36 nM
Max MFI [3]: 2190 MFI
OD450 nm [4]: 0.9 OD450
OD450 nm [5]: 0.25 OD450
OD450 nm [6]: 0.12 OD450
OD450 nm [7]: 0.08 OD450
OD450 nm [8]: 1.71 OD450
OD450 nm [9]: 2 OD450
B3: F1.21.8 human-murine chimeric antibody (antibody, human IgG1, kappa, V domains shown)
VH: EVQLQQSGPELVKPGASVKISCKTSGFLFTGHYMHWVKSSHGNILDWIGYIYPYNAISFYNQKFKGKATLTVDKSSNTAYMELRSLTSEDSAVYYCARGDYGNYVTAYWGQGTLVTVSA
VL: DVLMTQTPLSLPVSLGDQASISCRSSQSIVHSSGNTYLEWYLQKPGQSPKLLIYKVSNRFSGVPDRFSGSGSGTDFTLKISRVEAEDLGVYYCFQGSHLPWTFGGGTKLDIKR

OD450 nm [1]: 1.9 OD450
EC50 [2]: 0.33 nM
Max MFI [2]: 9980 MFI
EC50 [3]: 0.18 nM
Max MFI [3]: 2460 MFI
OD450 nm [4]: 0.83 OD450
OD450 nm [5]: 0.2 OD450
OD450 nm [6]: 0.11 OD450
OD450 nm [7]: 0.09 OD450
OD450 nm [8]: 1.83 OD450
OD450 nm [9]: 2.01 OD450
B4: F1.115.8 human-murine chimeric antibody (antibody, human IgG1, kappa, V domains shown)
VH: EVQLQQSGPELVKPGASVKMSCKASGYTFTEYYMHWVKQSHGKSLEWIGYIYPNNGGNGYNQKFKGKATLTVDKSSSTAYMGLRSLTSEDSAVYYCVRGYYSNWYFDVWGTGTTVTVSS
VL: B3 VL with S33N, N35K, L99V, W101F, G105S, D110E

OD450 nm [1]: 2.46 OD450
EC50 [2]: 1.08 nM
Max MFI [2]: 9230 MFI
EC50 [3]: 1.13 nM
Max MFI [3]: 1880 MFI
OD450 nm [4]: 1.61 OD450
OD450 nm [5]: 0.41 OD450
OD450 nm [6]: 0.14 OD450
OD450 nm [7]: 0.1 OD450
OD450 nm [8]: 2.41 OD450
OD450 nm [9]: 2.7 OD450
B5: F1.111.11 human-murine chimeric antibody (antibody, human IgG1, kappa, V domains shown)
VH: EVQLQQSGPELVKPGASVKISCKASGYTFTDYYMNWVKQSHGKSLEWIGDIYPNNGDTTYNQRFKGKATLTVDKSSSTAYMELRSLASEDSAVYYCACPYNNPFGYWGQGTLVTVSA
VL: B3 VL with L3V, I29L, S33N, E39H, Y92F, F94S, G96S, S97T, L99V, D110E

OD450 nm [1]: 1.18 OD450
EC50 [2]: 0.9 nM
Max MFI [2]: 9370 MFI
EC50 [3]: 0.83 nM
Max MFI [3]: 2270 MFI
OD450 nm [4]: 0.42 OD450
OD450 nm [5]: 0.13 OD450
OD450 nm [6]: 0.09 OD450
OD450 nm [7]: 0.08 OD450
OD450 nm [8]: 0.77 OD450
OD450 nm [9]: 0.62 OD450
B6: F1.110.24 human-murine chimeric antibody (antibody, human IgG1, kappa, V domains shown)
VH: EVKLVESGGGLVQPGGSLKLSCAASGFTFSDFYMYWVRQTPEKRLEWVAFISNGGGSTYYPDTVKGRFTISRDNVKNTLYLQMSRLKSEDTAMYYCARPDTSWFAYWGQGSLVTVSA
VL: DIQMTQTTSSLSASLGDRVTISCRASQDIDNYLNWYQQKPDGTVKVLISYTSRLHSGVPSRFSGSGSGTDYSLTISNLEQEDIATYFCQQGNTLPWTFGGGTKLEIKR

OD450 nm [1]: 1.19 OD450
EC50 [2]: 2.04 nM
Max MFI [2]: 9600 MFI
EC50 [3]: 2.9 nM
Max MFI [3]: 2300 MFI
OD450 nm [4]: 0.25 OD450
OD450 nm [5]: 0.11 OD450
OD450 nm [6]: 0.09 OD450
OD450 nm [7]: 0.08 OD450
OD450 nm [8]: 0.68 OD450
OD450 nm [9]: 0.66 OD450
B7: F1.92.17 human-murine chimeric antibody (antibody, human IgG1, kappa, V domains shown)
VH: EVQLQQSGPELVKPGASVKMSCKASGYTFTDYNMHWVRQSHGKSLEWIGYINPNNGDTIYNQNFKGKATLTVNKSSSTAYMELRSLTSEDSAVYYCSRTITYYYSMDYWGPGTSVTVSS
VL: QIVLTQSPALMSASPGEKVTMTCSASSSVSYMYWYQQKPRSSPKPWIYLTSNLASGVPARFSGSGSGTSYSLTISSMEAEDAATYYCQQWSSNPLTFGAGTKLELKR
